This note sets out measurements from patent publication US20230126796.

For data set [1], the system named is PAR4-C synthetic peptide.
Data set [2] concerns PAR4-B synthetic peptide.
The target of data set [3] is T1, PAR4-C synthetic peptide.
T1 chain: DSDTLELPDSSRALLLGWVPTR

In data set [4] the target is T2, PAR4-B synthetic peptide.
T2 chain: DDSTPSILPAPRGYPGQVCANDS

Where two headings read alike, the source gives them in different places.

Consider alpha-thrombin, for which the “proteolysis of the peptide, LC-MS/MS” value in data set [1] was “thrombin failed to cleave PAR4-C”; in data set [2], “PAR4-B was cleaved by thrombin between amino acids Arg47 and Gly48”.

B1: cathepsin G (protein)
chain: IIGGRESRPHSRPYMAYLQIQSPAGQSRCGGFLVREDFVLTAAHCWGSNINVTLGAHNIQRRENTQQHITARRAIRHPQYNQRTIQNDIMLLQLSRRVRRNRNVNPVALPRAQEGLRPGTLCTVAGWGRVSMRRGTDTLREVQLRVQRDRQCLRIFGSYDPRRQICVGDRRERKAAFKGDSGGPLLCNNVAHGIVSYGKSSGVPPEVFTRVSSFLPWIRTTMRS
In the case of B1, the “proteolysis of the peptide, LC-MS/MS” value is “CatG cleavage generated several fragments, including DSDTLELPSS” in data set [3] and “little cleavage was observed with CatG” in data set [4].
